In assay [1] the target is T1, His-tagged mAKAP 1286-1833 (bacterially expressed) (UniProt Q9WVC7 1286-1833).
T1 chain: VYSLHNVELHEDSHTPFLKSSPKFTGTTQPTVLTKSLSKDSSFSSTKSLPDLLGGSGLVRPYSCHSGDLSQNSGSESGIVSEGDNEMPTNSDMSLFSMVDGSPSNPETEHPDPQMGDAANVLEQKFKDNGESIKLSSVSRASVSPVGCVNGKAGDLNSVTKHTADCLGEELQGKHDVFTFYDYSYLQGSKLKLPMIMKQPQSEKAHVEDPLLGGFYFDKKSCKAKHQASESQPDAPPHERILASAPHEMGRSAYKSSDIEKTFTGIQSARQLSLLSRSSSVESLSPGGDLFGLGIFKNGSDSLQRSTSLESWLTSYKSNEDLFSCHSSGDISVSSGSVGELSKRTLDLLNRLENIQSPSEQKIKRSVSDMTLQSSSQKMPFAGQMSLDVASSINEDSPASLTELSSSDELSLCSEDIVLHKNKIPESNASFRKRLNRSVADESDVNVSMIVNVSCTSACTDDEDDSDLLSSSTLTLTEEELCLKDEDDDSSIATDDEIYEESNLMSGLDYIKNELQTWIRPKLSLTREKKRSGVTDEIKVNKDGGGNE
The experiment in a line: SPR; unphosphorylated RSK3. On the technique in general: SPR reads the build-up and loss of mass on a sensor chip optically.

For assay [2], the target named is T1, His-tagged mAKAP 1286-1833 (bacterially …). In words: SPR; ERK-phosphorylated RSK3.
The target in assay [3] is T2, His-tagged mAKAP 1286-1833 (bacterially expressed) (UniProt Q9WVC7 1286-1833).
T2 construct: Covalently immobilised by amine coupling on a CM5 chip, 200 resonance units; not shown: His tag (pET30 parent vector)
T2 sequence (looked up): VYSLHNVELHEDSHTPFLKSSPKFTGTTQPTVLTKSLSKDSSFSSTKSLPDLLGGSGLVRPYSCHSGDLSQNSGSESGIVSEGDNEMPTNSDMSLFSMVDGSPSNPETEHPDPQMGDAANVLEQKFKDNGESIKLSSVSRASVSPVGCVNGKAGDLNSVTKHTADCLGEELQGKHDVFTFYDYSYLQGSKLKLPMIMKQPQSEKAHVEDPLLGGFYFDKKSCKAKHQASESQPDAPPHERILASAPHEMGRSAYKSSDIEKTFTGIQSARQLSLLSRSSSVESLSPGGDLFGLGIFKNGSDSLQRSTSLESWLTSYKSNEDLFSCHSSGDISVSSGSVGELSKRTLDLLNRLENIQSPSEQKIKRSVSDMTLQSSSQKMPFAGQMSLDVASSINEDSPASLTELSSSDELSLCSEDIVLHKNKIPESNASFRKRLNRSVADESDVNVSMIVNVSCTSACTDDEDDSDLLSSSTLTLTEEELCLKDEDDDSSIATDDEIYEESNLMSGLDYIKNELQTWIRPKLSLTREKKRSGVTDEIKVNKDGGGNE
The experiment in a line: SPR (BIAcore T100), His-mAKAP 1286-1833 immobilised, phospho-His-RSK3 as analyte. The source says: Figure 7: FIG. 7. The p90 ribosomal S6 kinase type 3 (RSK3) binding site within muscle A-kinase anchoring protein (mAKAP). A, mAKAP domain structure. […] All fragments are numbered per mAKAPα. The grey bar indicates the RSK3 binding site. B-F, Specific tag antibodies were used to immunoprecipitate myc-tagged mAKAPβ and HA-tagged p90 ribosomal S6 kinase (RSK) proteins (see FIG. 4A) co-expressed in either HEK293 (B) or COS-7 (C-F) cells (n=3) for all panels. G, Surface plasmon resonance using purified bacterially expressed proteins. […] Each curve was repeated 3 times using different protein preparations.
Surface Plasmon Resonance: SPR analysis was performed using a BIAcore T100. […] (Biacore amine coupling kit) to the surface of a sensor chip (BIAcore type CM5). His-RSK3 analytes (6.25-200 nmol/L) in HBS buffer (10 mmol/L Hepes, pH 7.4, 150 mmol/L NaCl, and 0.005% Surfactant P20) were injected at a flow rate of 30 μL/min for 5 minutes, followed by buffer alone for another 5 minutes. Sensorgrams were processed by BIAcore T100 evaluation software.

Assay [4] has as its target T1, His-tagged mAKAP 1286-1833 (bacterially …). In words: SPR; ERK- and PDK1-phosphorylated RSK3.

B1: His-tagged full-length RSK3, unphosphorylated (bacterially expressed) (enzyme)
chain: MDLSMKKFAVRRFFSVYLRRKSRSKSSSLSRLEEEGVVKEIDISHHVKEGFEKADPSQFELLKVLGQGSYGKVFLVRKVKGSDAGQLYAMKVLKKATLKVRDRVRSKMERDILAEVNHPFIVKLHYAFQTEGKLYLILDFLRGGDLFTRLSKEVMFTEEDVKFYLAELALALDHLHSLGIIYRDLKPENILLDEEGHIKITDFGLSKEAIDHDKRAYSFCGTIEYMAPEVVNRRGHTQSADWWSFGVLMFEMLTGSLPFQGKDRKETMALILKAKLGMPQFLSGEAQSLLRALFKRNPCNRLGAGIDGVEEIKRHPFFVTIDWNTLYRKEIKPPFKPAVGRPEDTFHFDPEFTARTPTDSPGVPPSANAHHLFRGFSFVASSLIQEPSQQDLHKVPVHPIVQQLHGNNIHFTDGYEIKEDIGVGSYSVCKRCVHKATDTEYAVKIIDKSKRDPSEEIEILLRYGQHPNIITLKDVYDDGKFVYLVMELMRGGELLDRILRQRYFSEREASDVLCTITKTMDYLHSQGVVHRDLKPSNILYRDESGSPESIRVCDFGFAKQLRAGNGLLMTPCYTANFVAPEVLKRQGYDAACDIWSLGILLYTMLAGFTPFANGPDDTPEEILARIGSGKYALSGGNWDSISDAAKDVVSKMLHVDPHQRLTAMQVLKHPWVVNREYLSPNQLSRQDVHLVKGAMAATYFALNRTPQAPRLEPVLSSNLAQRRGMKRLTSTRL
In general, Kd refers to the equilibrium constant for the complex coming apart. Molecule B1 displayed a Kd in assay [1] of 1.6 nM.

B2: ERK-phosphorylated His-RSK3 (enzyme)
chain: MDLSMKKFAVRRFFSVYLRRKSRSKSSSLSRLEEEGVVKEIDISHHVKEGFEKADPSQFELLKVLGQGSYGKVFLVRKVKGSDAGQLYAMKVLKKATLKVRDRVRSKMERDILAEVNHPFIVKLHYAFQTEGKLYLILDFLRGGDLFTRLSKEVMFTEEDVKFYLAELALALDHLHSLGIIYRDLKPENILLDEEGHIKITDFGLSKEAIDHDKRAYSFCGTIEYMAPEVVNRRGHTQSADWWSFGVLMFEMLTGSLPFQGKDRKETMALILKAKLGMPQFLSGEAQSLLRALFKRNPCNRLGAGIDGVEEIKRHPFFVTIDWNTLYRKEIKPPFKPAVGRPEDTFHFDPEFTARTPTDSPGVPPSANAHHLFRGFSFVASSLIQEPSQQDLHKVPVHPIVQQLHGNNIHFTDGYEIKEDIGVGSYSVCKRCVHKATDTEYAVKIIDKSKRDPSEEIEILLRYGQHPNIITLKDVYDDGKFVYLVMELMRGGELLDRILRQRYFSEREASDVLCTITKTMDYLHSQGVVHRDLKPSNILYRDESGSPESIRVCDFGFAKQLRAGNGLLMTPCYTANFVAPEVLKRQGYDAACDIWSLGILLYTMLAGFTPFANGPDDTPEEILARIGSGKYALSGGNWDSISDAAKDVVSKMLHVDPHQRLTAMQVLKHPWVVNREYLSPNQLSRQDVHLVKGAMAATYFALNRTPQAPRLEPVLSSNLAQRRGMKRLTSTRL
modifications: phosphorylated in vitro with ERK2; sites of this preparation not given
notes: also called Phospho-His-RSK3 (ERK2); not shown: His tag
In the case of B2, in assay [2], the dissociation constant (Kd) was 7.3 nM. The “fold decrease in binding affinity against unphosphorylated RSK3” value in assay [3] turned out to be 5 fold.

B3: ERK and PDK1-phosphorylated His-RSK3 (enzyme)
chain: MDLSMKKFAVRRFFSVYLRRKSRSKSSSLSRLEEEGVVKEIDISHHVKEGFEKADPSQFELLKVLGQGSYGKVFLVRKVKGSDAGQLYAMKVLKKATLKVRDRVRSKMERDILAEVNHPFIVKLHYAFQTEGKLYLILDFLRGGDLFTRLSKEVMFTEEDVKFYLAELALALDHLHSLGIIYRDLKPENILLDEEGHIKITDFGLSKEAIDHDKRAYSFCGTIEYMAPEVVNRRGHTQSADWWSFGVLMFEMLTGSLPFQGKDRKETMALILKAKLGMPQFLSGEAQSLLRALFKRNPCNRLGAGIDGVEEIKRHPFFVTIDWNTLYRKEIKPPFKPAVGRPEDTFHFDPEFTARTPTDSPGVPPSANAHHLFRGFSFVASSLIQEPSQQDLHKVPVHPIVQQLHGNNIHFTDGYEIKEDIGVGSYSVCKRCVHKATDTEYAVKIIDKSKRDPSEEIEILLRYGQHPNIITLKDVYDDGKFVYLVMELMRGGELLDRILRQRYFSEREASDVLCTITKTMDYLHSQGVVHRDLKPSNILYRDESGSPESIRVCDFGFAKQLRAGNGLLMTPCYTANFVAPEVLKRQGYDAACDIWSLGILLYTMLAGFTPFANGPDDTPEEILARIGSGKYALSGGNWDSISDAAKDVVSKMLHVDPHQRLTAMQVLKHPWVVNREYLSPNQLSRQDVHLVKGAMAATYFALNRTPQAPRLEPVLSSNLAQRRGMKRLTSTRL
modifications: phosphorylated in vitro with ERK2 and PDK1; sites of this preparation not given
notes: also called Phospho-His-RSK3 (ERK2 and PDK1); not shown: His tag
For the molecule B3, the equilibrium dissociation constant (Kd) in assay [4] came to 12.7 nM. In addition, the “fold decrease in binding affinity against unphosphorylated RSK3” value in assay [3] stood at 8 fold.

These data come from US9132174 (ANCHORED RSK3 INHIBITORS, dated 2015).
